B1: SEQ ID NO 61 (receptor)
chain: MGHLPKPTLWAEPGSVITMGQPVTLRCQGGQETQEYRLYREKKTAPWITRIPQELVKKGQFPIPSITWEHAGRYRCYYGSDTAGRSESSDPLELVVTGAYIKPTLSAQPSPVVNSGGNVTLQCDSQVAFDGFILCKEGEDEHPQCLNSQPHARGSSRAIFSVGPVSPSRRWWYRCYAYDSNSPYEWSLPSDLLELLVL
notes: mutated soluble two domain ILT-2
B2: SEQ ID NO 70 (receptor)
chain: MGHLPKPTLQAEPGSVITQGSPVTLRCQGGQETQEYRLYREKKTAPWITRIPQELVKKGQFPIPSITWEHAGRYRCVIQRGTAGRSESSDPLELVVTGVYIKPTLSAQPSPVVNSGGNVTLQCDSQVAFDGFILCKEGEDEHPQCLNSQPHARGSSRAIFSVGPVSPSRRWWYRCYAYDSNSPYEWSLPSDLLELLVL
notes: as for B1
B3: SEQ ID NO 65 (receptor)
chain: MGHLPKPTLWAEPGSVITMDQPVTLRCQGGQETQEYRLYREKKTAPWITRIPQELVKKGQFPIPSITWEHAGRYRCYYGSDTSQWSASSDPLELVVTGVYIKPTLSAQPSPVVNSGGNVTLQCDSQVAFDGFILCKEGEDEHPQCLNSQPHARGSSRAIFSVGPVSPSRRWWYRCYAYDSNSPYEWSLPSDLLELLVL
notes: as for B1
B4: SEQ ID NO 69 (receptor)
chain: MGHLPKPTLWAEPGSVITLSQPVTLRCQGGQETQEYRLYREKKTAPWITRIPQELVKKGQFPIPSITWEHAGRYRCYYGSDTAGRSESSDPLELVVTGVYIKPTLSAQPSPVVNSGGNVTLQCDSQVAFDGFILCKEGEDEHPQCLNSQPHARGSSRAIFSVGPVSPSRRWWYRCYAYDSNSPYEWSLPSDLLELLVL
notes: as for B1
B5: SEQ ID NO 68 (receptor)
chain: MGHLPKPTLWAEPGSVITLFQPVTLRCQGGQETQEYRLYREKKTAPWITRIPQELVKKGQFPIPSITWEHAGRYRCYYGSDTAGRSESSDPLELVVTGAYIKPTLSAQPSPVVNSGGNVTLQCDSQVAFDGFILCKEGEDEHPQCLNSQPHARGSSRAIFSVGPVSPSRRWWYRCYAYDSNSPYEWSLPSDLLELLVL
notes: as for B1
B6: SEQ ID NO 77 (receptor)
chain: MGHLPKPTLWAEPGSVITQGSPVTLRCQGGQETQEYRLYREKKTAPWITRIPQELVKKGQFPIPSITWEHAGRYRCMQYTLTAGRSESSDPLELVVTGAYIKPTLSAQPSPVVNSGGNVTLQCDSQVAFDGFILCKEGEDEHPQCLNSQPHARGSSRAIFSVGPVSPSRRWWYRCYAYDSNSPYEWSLPSDLLELLVL
notes: as for B1
B7: SEQ ID NO 62 (receptor)
chain: MGHLPKPTLWAEPGSVITMDQPVTLRCQGGQETQEYRLYREKKTAPWITRIPQELVKKGQFPIPSITWEHAGRYRCYYGSDTAGRSESSDPLELVVTGVYIKPTLSAQPSPVVNSGGNVTLQCDSQVAFDGFILCKEGEDEHPQCLNSQPHARGSSRAIFSVGPVSPGRRWWYRCYAYDSNSPYEWSLPSDLLELLVL
notes: as for B1
B8: SEQ ID NO 64 (receptor)
chain: MGHLPKPTLWAEPGSVITMQRPVTLRCQGGQETQEYRLYRERKTAPWITRIPQELVKKGQFPIPSITWEHAGRYRCYYGSDTAGRSESSDPLELVVTGAYIKPTLSAQPSPVVNSGGNVTLQCDSQVAFDGFILCKEGEDEHPQCLSSQPHARGSSRAIFSVGPVSPSRRWWYRCYAYDSNSPYEWSLPSDLLELLVL
notes: as for B1
B9: SEQ ID NO 71 (receptor)
chain: MGHLPKPTLWAEPGSVITQGSPVTLRCQGGQETQEYRLYREKKTAPWITRIPQELVKKGQFPIPSITWEHAGRYRCYYGSQGGLRSESSDPLELVVTGVYIKPTLSAQPSPVVNSGGNVTLQCDSQVAFDGFILCKEGEDEHPQCLNSQPHARGSSRAIFSVGPVSPSRRWWYRCYAYDSNSPYEWSLPSDLLELLVL
notes: as for B1
B10: SEQ ID NO 73 (receptor)
chain: MGHLPKPTLWAEPGSVITQGSPVTLRCQGGQETQEYRLYREKKTAPWITRIPQELVKKGQFPIPSITWEHAGRYRCMQYTLTAGRSESSDPLELVVTGVYIKPTLSAQPSPVVNSGGNVTLQCDSQVAFDGFILCKEGEDEHPQCLNSQPHARGSSRAIFSVGPVSPSRRWWYRCYAYDSNSPYEWSLPSDLLELLVL
notes: as for B1
B11: SEQ ID NO 78 (receptor)
chain: MGHLPKPTLWAEPGSVITMDQPVTLRCQGGQETQEYRLYREKKTAPWITRIPQELVKKGQFPIPSITWEHAGRYRCYYGSQGGLRSESSDPLELVVTGVYIKPTLSAQPSPVVNSGGNVTLQCDSQVAFDGFILCKEGEDEHPQCLNSQPHARGSSRAIFSVGPVSPGRRWWYRCYAYDSNSPYEWSLPSDLLELLVL
notes: as for B1
B12: SEQ ID NO 72 (receptor)
chain: MGHLPKPTLWAEPGSVITQGSPVTLRCQGGQETQEYRLYREKKTAPWITRIPQELVKKGQFPIPSITWEHAGRYRCYYGTQTAGRSESSDPLELVVTGVYIKPTLSAQPSPVVNSGGNVTLQCDSQVAFDGFILCKEGEDEHPQCLNSQPHARGSSRAIFSVGPVSPSRRWWYRCYAYDSNSPYEWSLPSDLLELLVL
notes: as for B1
B13: SEQ ID NO 75 (receptor)
chain: MGHLPKPTLWAEPGSVITQGSPVTLRCQGGQETQEYRLYREKKTAPWITRIPQELVKKGQFPIPSITWEHAGRYRCYYGSQGGLRSESSDPLELVVTGAYIKPTLSAQPSPVVNSGGNVTLQCDSQVAFDGFILCKEGEDEHPQCLNSQPHARGSSRAIFSVGPVSPSRRWWYRCYAYDSNSPYEWSLPSDLLELLVL
notes: as for B1
B14: SEQ ID NO 63 (receptor)
chain: MGHLPKPTLWAEPGSVITLMQPVTLRCQGGQETQEYRLYREKKTAPWITRIPQELVKKGQFPIPSITWEHAGRYRCYYGSDTAGRSESSDPLELVVTGAYIKPTLSAQPSPVVNSGGNVTLQCDSQVAFDGFILCKEGEDEHPQCLNSQPHARGSSRAIFSVGPVSPSRRWWYRCYAYDSNSPYEWSLPSDLLELLVL
notes: as for B1
B15: SEQ ID NO 74 (receptor)
chain: MGHLPKPTLWAEPGSVITQGSPVTLRCQGGQETQEYRLYREKKTAPWITRIPQELVKKGQFPIPSITWEHAGRYRCYYGSDTSQWSASSDPLELVVTGVYIKPTLSAQPSPVVNSGGNVTLQCDSQVAFDGFILCKEGEDEHPQCLNSQPHARGSSRAIFSVGPVSPSRRWWYRCYAYDSNSPYEWSLPSDLLELLVL
notes: as for B1
B16: SEQ ID NO 76 (receptor)
chain: MGHLPKPTLWAEPGSVITQGSPVTLRCQGGQETQEYRLYREKKTAPWITRIPQELVKKGQFPIPSITWEHAGRYRCYYGTQTAGRSESSDPLELVVTGAYIKPTLSAQPSPVVNSGGNVTLQCDSQVAFDGFILCKEGEDEHPQCLNSQPHARGSSRAIFSVGPVSPSRRWWYRCYAYDSNSPYEWSLPSDLLELLVL
notes: as for B1

In patent US20100135997A1 (MEDGENE, published 2010) one finds Kd and koff data, which are given here for 16 molecules.

The target in the experiment is T1, HLA-A*0201 loaded with the Carcinoembryonic antigen (CEA)-derived … peptide (biotin on the C-terminal biotinylation tag).
T1 construct: Soluble, biotinylated, immobilised on a streptavidin chip
Nature of the experiment: Biacore SPR. On the procedure: SPR measures changes in refractive index expressed in response units (RU) near a sensor surface within a small flow cell, a principle that can be used to detect receptor ligand interactions and to analyse their affinity and kinetic parameters. The probe flow cells were prepared by immobilising the pMHC complexes in flow cells via biotin-tag binding. The assay was then performed by passing soluble ILT-like molecule over the surfaces of the different flow cells at a constant flow rate, measuring the SPR response in doing so.
One may read the Kd as a measure of binding affinity in units of concentration. A high value points to lower affinity. What is called koff is the rate constant with which the complex falls apart. On to B1, for which the Kd is ≤ 1 µM and the dissociation rate constant (koff) was ≤ 2 s⁻¹.

As for B2, the Kd is ≤ 1 µM and the dissociation rate constant (koff) is ≤ 2 s⁻¹.

Take B3: the dissociation constant (Kd) was ≤ 1 µM and the off-rate constant (koff) was ≤ 2 s⁻¹.

Turning to B4, the Kd was ≤ 1 µM and the koff is ≤ 2 s⁻¹.

B5: the Kd was ≤ 1 µM and the koff is ≤ 2 s⁻¹.

On to B6, for which the equilibrium dissociation constant (Kd) is ≤ 1 µM and the koff was ≤ 2 s⁻¹.

Regarding B7, the Kd is ≤ 1 µM and the dissociation rate constant (koff) is ≤ 2 s⁻¹.

In the case of B8, the equilibrium dissociation constant (Kd) was ≤ 1 µM and the koff was ≤ 2 s⁻¹.

As for B9, the Kd is ≤ 1 µM and the koff was ≤ 2 s⁻¹.

B10: the dissociation constant (Kd) is ≤ 1 µM and the off-rate (koff) is ≤ 2 s⁻¹.

For the molecule B11, the dissociation constant (Kd) was ≤ 1 µM and the koff is ≤ 2 s⁻¹.

On to B12, for which the Kd was ≤ 1 µM and the off-rate (koff) was ≤ 2 s⁻¹.

Regarding B13, the Kd is ≤ 1 µM and the koff is ≤ 2 s⁻¹.

For B14, the Kd was ≤ 1 µM and the off-rate constant (koff) was ≤ 2 s⁻¹.

As for B15, the Kd is ≤ 1 µM and the koff is ≤ 2 s⁻¹.

Turning to B16, the Kd was ≤ 1 µM and the koff is ≤ 2 s⁻¹.
